Source: patent US20170281796A1, “c-Met Antibody Drug Conjugate” (Sorrento Therapeutics, Inc., priority 2014, published 2017)

System: MDA-MB468
Assay: internalization of anti c-Met antibody in triple negative breast cancer cell line
Assay type: cell-based
Details: 1 μg/ml antibody, 180 min at 37° C.; FIG. 8
Description: Internalization of anti c-Met antibody IgG1 H8-A2 (also called STI-0602 SEQ ID NO. 25/SEQ ID NO. 26) in MDA-MB468. MDA-MB468 were plated overnight and incubated with 1 μg/ml anti-C-Met H8A2 antibody for 180 min at 37° C. Cells were stained with anti-AF488.

B1: H8-A2: anti c-Met antibody IgG1, heavy chain SEQ ID NO. 25 / light chain SEQ ID NO. 26 (antibody, V domains shown)
VH: EVQLVQSGAEVKKPGASVKVSCKASGYTFYSEYMHWVRQAPGQGLEWMGWINPNSGNTGVAPKFQGRVTMTRNTSISTAYMELSSLRSEDTAVYYCARRGTTVSFDTWGQGTLVTVSS
VL: QLVLTQSPSVSVAPGQRVTISCSGSNSNIGNNYVSWYHHLPGTAPKLLIYDNNKRPSGIPDRFSGSKSGTSATLGITGLQPGDEAHYYCGTWDSTLSAWAFGGGTKLTVL
modifications: Homo sapians
**Q.** For B1, which internalization is on record?
**A.** Its internalization is “internalized”.
